Reference: patent US20260001928A1 (CORTERIA PHARMACEUTICALS, priority 2022, published 2026)
*1 amine or outer side, *2 acyl side, *3 side chain or, on linkers, in order; H or OH if unused. Where no end group is shown, it is not given here. Side-chain parts run from the residue outwards. [ ]: non-standard residue; d: D form. The star is where a group is joined. C18 diacid = O=C(O)CCCCCCCCCCCCCCCCC(=O)*; C16 diacid = O=C(O)CCCCCCCCCCCCCCC(=O)*; γGlu = O=C(O)[C@H](CCC(=O)[*:2])N[*:1]; αMeL = CC(C)C[C@](C)(N)C(=O)O; Pentanoyl = CCCCC(=O)*; AEEA = NCCOCCOCC(=O)O; Aib = CC(C)(N)C(=O)O

T1: CRF1R receptor (UniProt P34998 24-415, limits assumed)
T1 sequence (looked up): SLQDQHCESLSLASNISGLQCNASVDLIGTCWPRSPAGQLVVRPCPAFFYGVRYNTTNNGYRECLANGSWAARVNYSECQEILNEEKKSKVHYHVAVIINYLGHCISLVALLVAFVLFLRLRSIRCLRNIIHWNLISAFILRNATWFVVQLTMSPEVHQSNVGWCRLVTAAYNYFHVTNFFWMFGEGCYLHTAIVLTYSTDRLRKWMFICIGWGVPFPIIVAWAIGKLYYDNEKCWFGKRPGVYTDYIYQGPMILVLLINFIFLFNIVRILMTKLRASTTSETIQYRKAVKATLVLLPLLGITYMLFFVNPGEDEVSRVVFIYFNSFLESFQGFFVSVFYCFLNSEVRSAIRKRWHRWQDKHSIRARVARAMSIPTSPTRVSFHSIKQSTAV

B1: SEQ ID NO 46 (peptide)
peptide: Ac-VLSLD[dV]PIK[αMeL]K([γGlu-C16 diacid])KILLEQEKQKKQREQAETN[Aib]QILAQV-NH2
SMILES: CC[C@H](C)[C@H](NC(=O)[C@H](CCC(N)=O)NC(=O)C(C)(C)NC(=O)[C@H](CC(N)=O)NC(=O)[C@@H](NC(=O)[C@H](CCC(=O)O)NC(=O)[C@H](C)NC(=O)[C@H](CCC(N)=O)NC(=O)[C@H](CCC(=O)O)NC(=O)[C@H](CCCNC(=N)N)NC(=O)[C@H](CCC(N)=O)NC(=O)[C@H](CCCCN)NC(=O)[C@H](CCCCN)NC(=O)[C@H](CCC(N)=O)NC(=O)[C@H](CCCCN)NC(=O)[C@H](CCC(=O)O)NC(=O)[C@H](CCC(N)=O)NC(=O)[C@H](CCC(=O)O)NC(=O)[C@H](CC(C)C)NC(=O)[C@H](CC(C)C)NC(=O)[C@@H](NC(=O)[C@H](CCCCN)NC(=O)[C@H](CCCCNC(=O)CC[C@H](NC(=O)CCCCCCCCCCCCCCC(=O)O)C(=O)O)NC(=O)[C@](C)(CC(C)C)NC(=O)[C@H](CCCCN)NC(=O)[C@@H](NC(=O)[C@@H]1CCCN1C(=O)[C@H](NC(=O)[C@H](CC(=O)O)NC(=O)[C@H](CC(C)C)NC(=O)[C@H](CO)NC(=O)[C@H](CC(C)C)NC(=O)[C@@H](NC(C)=O)C(C)C)C(C)C)[C@@H](C)CC)[C@@H](C)CC)[C@@H](C)O)C(=O)N[C@@H](CC(C)C)C(=O)N[C@@H](C)C(=O)N[C@@H](CCC(N)=O)C(=O)N[C@H](C(N)=O)C(C)C
B2: SEQ ID NO 50 (peptide)
peptide: Ac-IVLSLD[dV]PIK[αMeL]K([γGlu-C16 diacid])KILLEQEKQKKQREQAETNVQILAQV-NH2
SMILES: CC[C@H](C)[C@H](NC(C)=O)C(=O)N[C@H](C(=O)N[C@@H](CC(C)C)C(=O)N[C@@H](CO)C(=O)N[C@@H](CC(C)C)C(=O)N[C@@H](CC(=O)O)C(=O)N[C@@H](C(=O)N1CCC[C@H]1C(=O)N[C@H](C(=O)N[C@@H](CCCCN)C(=O)N[C@@](C)(CC(C)C)C(=O)N[C@@H](CCCCNC(=O)CC[C@H](NC(=O)CCCCCCCCCCCCCCC(=O)O)C(=O)O)C(=O)N[C@@H](CCCCN)C(=O)N[C@H](C(=O)N[C@@H](CC(C)C)C(=O)N[C@@H](CC(C)C)C(=O)N[C@@H](CCC(=O)O)C(=O)N[C@@H](CCC(N)=O)C(=O)N[C@@H](CCC(=O)O)C(=O)N[C@@H](CCCCN)C(=O)N[C@@H](CCC(N)=O)C(=O)N[C@@H](CCCCN)C(=O)N[C@@H](CCCCN)C(=O)N[C@@H](CCC(N)=O)C(=O)N[C@@H](CCCNC(=N)N)C(=O)N[C@@H](CCC(=O)O)C(=O)N[C@@H](CCC(N)=O)C(=O)N[C@@H](C)C(=O)N[C@@H](CCC(=O)O)C(=O)N[C@H](C(=O)N[C@@H](CC(N)=O)C(=O)N[C@H](C(=O)N[C@@H](CCC(N)=O)C(=O)N[C@H](C(=O)N[C@@H](CC(C)C)C(=O)N[C@@H](C)C(=O)N[C@@H](CCC(N)=O)C(=O)N[C@H](C(N)=O)C(C)C)[C@@H](C)CC)C(C)C)[C@@H](C)O)[C@@H](C)CC)[C@@H](C)CC)C(C)C)C(C)C
B3: SEQ ID NO 44 (peptide)
peptide: Ac-IVLSLD[dV]PIK[αMeL]K([γGlu-C16 diacid])KILLEQEKQKKQREQAETN[Aib]QILAQV-NH2
SMILES: CC[C@H](C)[C@H](NC(C)=O)C(=O)N[C@H](C(=O)N[C@@H](CC(C)C)C(=O)N[C@@H](CO)C(=O)N[C@@H](CC(C)C)C(=O)N[C@@H](CC(=O)O)C(=O)N[C@@H](C(=O)N1CCC[C@H]1C(=O)N[C@H](C(=O)N[C@@H](CCCCN)C(=O)N[C@@](C)(CC(C)C)C(=O)N[C@@H](CCCCNC(=O)CC[C@H](NC(=O)CCCCCCCCCCCCCCC(=O)O)C(=O)O)C(=O)N[C@@H](CCCCN)C(=O)N[C@H](C(=O)N[C@@H](CC(C)C)C(=O)N[C@@H](CC(C)C)C(=O)N[C@@H](CCC(=O)O)C(=O)N[C@@H](CCC(N)=O)C(=O)N[C@@H](CCC(=O)O)C(=O)N[C@@H](CCCCN)C(=O)N[C@@H](CCC(N)=O)C(=O)N[C@@H](CCCCN)C(=O)N[C@@H](CCCCN)C(=O)N[C@@H](CCC(N)=O)C(=O)N[C@@H](CCCNC(=N)N)C(=O)N[C@@H](CCC(=O)O)C(=O)N[C@@H](CCC(N)=O)C(=O)N[C@@H](C)C(=O)N[C@@H](CCC(=O)O)C(=O)N[C@H](C(=O)N[C@@H](CC(N)=O)C(=O)NC(C)(C)C(=O)N[C@@H](CCC(N)=O)C(=O)N[C@H](C(=O)N[C@@H](CC(C)C)C(=O)N[C@@H](C)C(=O)N[C@@H](CCC(N)=O)C(=O)N[C@H](C(N)=O)C(C)C)[C@@H](C)CC)[C@@H](C)O)[C@@H](C)CC)[C@@H](C)CC)C(C)C)C(C)C
B4: SEQ ID NO 16 (peptide)
peptide: Ac-IVLSLD[dV]PIKLK([γGlu-C16 diacid])QILLKQERQKKQREQAEKN[Aib]QILEQV-NH2
SMILES: CC[C@H](C)[C@H](NC(C)=O)C(=O)N[C@H](C(=O)N[C@@H](CC(C)C)C(=O)N[C@@H](CO)C(=O)N[C@@H](CC(C)C)C(=O)N[C@@H](CC(=O)O)C(=O)N[C@@H](C(=O)N1CCC[C@H]1C(=O)N[C@H](C(=O)N[C@@H](CCCCN)C(=O)N[C@@H](CC(C)C)C(=O)N[C@@H](CCCCNC(=O)CC[C@H](NC(=O)CCCCCCCCCCCCCCC(=O)O)C(=O)O)C(=O)N[C@@H](CCC(N)=O)C(=O)N[C@H](C(=O)N[C@@H](CC(C)C)C(=O)N[C@@H](CC(C)C)C(=O)N[C@@H](CCCCN)C(=O)N[C@@H](CCC(N)=O)C(=O)N[C@@H](CCC(=O)O)C(=O)N[C@@H](CCCNC(=N)N)C(=O)N[C@@H](CCC(N)=O)C(=O)N[C@@H](CCCCN)C(=O)N[C@@H](CCCCN)C(=O)N[C@@H](CCC(N)=O)C(=O)N[C@@H](CCCNC(=N)N)C(=O)N[C@@H](CCC(=O)O)C(=O)N[C@@H](CCC(N)=O)C(=O)N[C@@H](C)C(=O)N[C@@H](CCC(=O)O)C(=O)N[C@@H](CCCCN)C(=O)N[C@@H](CC(N)=O)C(=O)NC(C)(C)C(=O)N[C@@H](CCC(N)=O)C(=O)N[C@H](C(=O)N[C@@H](CC(C)C)C(=O)N[C@@H](CCC(=O)O)C(=O)N[C@@H](CCC(N)=O)C(=O)N[C@H](C(N)=O)C(C)C)[C@@H](C)CC)[C@@H](C)CC)[C@@H](C)CC)C(C)C)C(C)C
B5: SEQ ID NO 53 (peptide)
peptide: Ac-IVLSLD[dV]PIK[αMeL]K([γGlu-C16 diacid])KILLEQEKQKKQREQAETDKQILAQV-NH2
SMILES: CC[C@H](C)[C@H](NC(C)=O)C(=O)N[C@H](C(=O)N[C@@H](CC(C)C)C(=O)N[C@@H](CO)C(=O)N[C@@H](CC(C)C)C(=O)N[C@@H](CC(=O)O)C(=O)N[C@@H](C(=O)N1CCC[C@H]1C(=O)N[C@H](C(=O)N[C@@H](CCCCN)C(=O)N[C@@](C)(CC(C)C)C(=O)N[C@@H](CCCCNC(=O)CC[C@H](NC(=O)CCCCCCCCCCCCCCC(=O)O)C(=O)O)C(=O)N[C@@H](CCCCN)C(=O)N[C@H](C(=O)N[C@@H](CC(C)C)C(=O)N[C@@H](CC(C)C)C(=O)N[C@@H](CCC(=O)O)C(=O)N[C@@H](CCC(N)=O)C(=O)N[C@@H](CCC(=O)O)C(=O)N[C@@H](CCCCN)C(=O)N[C@@H](CCC(N)=O)C(=O)N[C@@H](CCCCN)C(=O)N[C@@H](CCCCN)C(=O)N[C@@H](CCC(N)=O)C(=O)N[C@@H](CCCNC(=N)N)C(=O)N[C@@H](CCC(=O)O)C(=O)N[C@@H](CCC(N)=O)C(=O)N[C@@H](C)C(=O)N[C@@H](CCC(=O)O)C(=O)N[C@H](C(=O)N[C@@H](CC(=O)O)C(=O)N[C@@H](CCCCN)C(=O)N[C@@H](CCC(N)=O)C(=O)N[C@H](C(=O)N[C@@H](CC(C)C)C(=O)N[C@@H](C)C(=O)N[C@@H](CCC(N)=O)C(=O)N[C@H](C(N)=O)C(C)C)[C@@H](C)CC)[C@@H](C)O)[C@@H](C)CC)[C@@H](C)CC)C(C)C)C(C)C
B6: SEQ ID NO 29 (peptide)
peptide: Pentanoyl-VLSLD[dV]PIKLK([AEEA-AEEA-γGlu-γGlu-C18 diacid])Q[Aib]LLKQERQKKQREQAEKNVQILEQV-NH2
SMILES: CCCCC(=O)N[C@H](C(=O)N[C@@H](CC(C)C)C(=O)N[C@@H](CO)C(=O)N[C@@H](CC(C)C)C(=O)N[C@@H](CC(=O)O)C(=O)N[C@@H](C(=O)N1CCC[C@H]1C(=O)N[C@H](C(=O)N[C@@H](CCCCN)C(=O)N[C@@H](CC(C)C)C(=O)N[C@@H](CCCCNC(=O)COCCOCCNC(=O)COCCOCCNC(=O)CC[C@H](NC(=O)CC[C@H](NC(=O)CCCCCCCCCCCCCCCCC(=O)O)C(=O)O)C(=O)O)C(=O)N[C@@H](CCC(N)=O)C(=O)NC(C)(C)C(=O)N[C@@H](CC(C)C)C(=O)N[C@@H](CC(C)C)C(=O)N[C@@H](CCCCN)C(=O)N[C@@H](CCC(N)=O)C(=O)N[C@@H](CCC(=O)O)C(=O)N[C@@H](CCCNC(=N)N)C(=O)N[C@@H](CCC(N)=O)C(=O)N[C@@H](CCCCN)C(=O)N[C@@H](CCCCN)C(=O)N[C@@H](CCC(N)=O)C(=O)N[C@@H](CCCNC(=N)N)C(=O)N[C@@H](CCC(=O)O)C(=O)N[C@@H](CCC(N)=O)C(=O)N[C@@H](C)C(=O)N[C@@H](CCC(=O)O)C(=O)N[C@@H](CCCCN)C(=O)N[C@@H](CC(N)=O)C(=O)N[C@H](C(=O)N[C@@H](CCC(N)=O)C(=O)N[C@H](C(=O)N[C@@H](CC(C)C)C(=O)N[C@@H](CCC(=O)O)C(=O)N[C@@H](CCC(N)=O)C(=O)N[C@H](C(N)=O)C(C)C)[C@@H](C)CC)C(C)C)[C@@H](C)CC)C(C)C)C(C)C

What follows are binders tested against T1, CRF1R receptor (assay: cell-based or functional assay).

Row | Emax (% I) [%] | EC50 [nM] | Binder
1 | 6 |  | B1
2 | 9 |  | B2
3 | 5 |  | B3
4 | 47 | 185 | B4
5 | 5 |  | B5
6 | 6 | > 250 | B6
7 | 13 | 100 | IVLSLD[dV]PIKLK([AEEA-AEEA-γGlu-C16 diacid])QILLKQERQKKQREQAEKNKQILEQV-NH2 [SEQ ID NO 148]

The binders below were run against human corticotropin-releasing factor 2a (CRF2a receptor) (human), Q13324 (assay: cell-based or functional assay).
Sequence of human corticotropin-releasing factor 2a (CRF2a receptor) (human), Q13324 (Q13324 20-411): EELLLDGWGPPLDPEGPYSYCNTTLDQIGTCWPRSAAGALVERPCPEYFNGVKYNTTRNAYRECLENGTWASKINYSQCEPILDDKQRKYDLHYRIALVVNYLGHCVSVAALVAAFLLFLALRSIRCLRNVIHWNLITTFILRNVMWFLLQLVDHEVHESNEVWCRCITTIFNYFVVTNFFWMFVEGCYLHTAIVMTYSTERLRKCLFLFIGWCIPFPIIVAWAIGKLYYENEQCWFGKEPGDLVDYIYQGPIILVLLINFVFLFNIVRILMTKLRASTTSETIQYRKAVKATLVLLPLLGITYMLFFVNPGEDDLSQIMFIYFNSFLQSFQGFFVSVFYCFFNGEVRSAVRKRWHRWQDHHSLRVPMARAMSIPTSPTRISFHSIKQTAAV

Row | EC50 [nM] (cAMP) | Binder
8 | 0.7 | B1
9 | 0.26 | B2
10 | 0.25 | B3
11 | 0.13 | B4
12 | 8.05 | B5
13 | 37.2 | B6
14 | 0.65 | IVLSLD[dV]PIKLK([AEEA-AEEA-γGlu-C16 diacid])QILLKQERQKKQREQAEKNKQILEQV-NH2 [SEQ ID NO 148]
